Laboratory results from the Human Domainome abundance scans (Beltran et al. 2025).
± gives the uncertainty stated by the source.

B1: Connector enhancer of kinase suppressor of ras 2, residues 9 to 71; numbered along this chain, Q8WXI2 (parent)
chain: SKWSPSQVVDWMKGLDDCLQQYIKNFEREKISGDQLLRITHQELEDLGVSRIGHQELILEAVD

Variants of: B1
Test: abundance fitness (aPCA) (normalised: wild type 0, dead -1); higher = more abundant; growth selection in yeast, the domain comes from the species named
Conditions: Homo sapiens

| Variant | abundance fitness |
| --- | --- |
| P5N | 0.005 ± 0.041 |
| G53N | 0.084 ± 0.081 |
| S4V | -0.496 ± 0.025 |
| D34A | 0.037 ± 0.028 |
| D34M | -0.108 ± 0.037 |
| E60F | -0.615 ± 0.058 |
| I39Q | -0.653 ± 0.032 |
| D17P | -0.051 ± 0.031 |
| I52G | -0.074 ± 0.025 |
| D46M | -0.042 ± 0.04 |
| E56S | -0.17 ± 0.032 |
| S32I | -0.589 ± 0.086 |
| S32P | -0.624 ± 0.053 |
| H54M | -0.819 ± 0.052 |
| H54R | -0.793 ± 0.043 |
| H54F | -0.886 ± 0.1 |
| L15I | -0.446 ± 0.046 |
| W11A | -0.95 ± 0.051 |
| E27N | -0.535 ± 0.047 |
| E27G | -0.514 ± 0.026 |
| Y22Q | -0.636 ± 0.062 |
| Y22I | -0.834 ± 0.085 |

| Variant | abundance fitness |
| --- | --- |
| Y22W | -0.632 ± 0.06 |
| Q35V | -0.19 ± 0.037 |
| V62T | -0.58 ± 0.047 |
| W3F | -0.563 ± 0.067 |
| W3D | -0.393 ± 0.061 |
| L36C | -0.961 ± 0.089 |
| L36S | -0.846 ± 0.04 |
| L36G | -0.845 ± 0.052 |
| L57I | -0.242 ± 0.048 |
| R51M | -0.042 ± 0.039 |
| E29Y | -0.102 ± 0.046 |
| S50H | 0.239 ± 0.17 |
| S50N | -0.471 ± 0.34 |
| L19C | -0.244 ± 0.034 |
| L44D | -0.657 ± 0.065 |
| L44F | -0.722 ± 0.07 |
| V8M | -0.771 ± 0.058 |
| V8N | -0.973 ± 0.069 |
| F26V | -0.485 ± 0.027 |
| E43F | -0.455 ± 0.042 |
| E43P | -0.987 ± 0.077 |
| E43G | -0.131 ± 0.034 |

| Variant | abundance fitness |
| --- | --- |
| E43A | -0.143 ± 0.03 |
| E45H | -0.04 ± 0.022 |
| S6Q | -0.003 ± 0.032 |
| S6F | -0.287 ± 0.038 |
| L37P | -0.407 ± 0.041 |
| L37C | -0.108 ± 0.041 |
| L37W | -0.349 ± 0.045 |
| L47W | -0.622 ± 0.047 |
| D16N | -0.311 ± 0.033 |
| D16L | -0.702 ± 0.035 |
| K30A | -0.069 ± 0.027 |
| V9M | -0.159 ± 0.038 |
| I31A | -0.914 ± 0.043 |
| I31H | -0.71 ± 0.069 |
| I31W | -0.74 ± 0.056 |
| T40E | -0.548 ± 0.038 |
| I23M | -0.34 ± 0.05 |
| I23A | 0.006 ± 0.027 |
| K2W | -0.291 ± 0.079 |
| K2G | -0.059 ± 0.041 |
| M12K | -0.827 ± 0.095 |
